Measurements from publication PMC10873205 (Nature Structural & Molecular Biology, 2024).
Residue numbers refer to the chain shown, from its start. In names and notes the source's numbering stands. Values belong to the binder of their own block, whether it stands above or below them.

Columns and labels:
UBE2A [1] = target: T1, UBE2A (UniProt P49459 1-152); assay: ITC; UBR4 construct in the cell (74 μM), UBE2A in the syringe at tenfold higher concentration; 25 °C; 0.4 µl then 13 injections of 3 µl; UBE2A into buffer subtracted; single site binding model; settings: both partners purified
T1 construct: also called UBE2A WT; source: E. coli BL21(DE3), purified (glutathione Sepharose 4B or Ni-NTA, SEC); not shown: GST (from the vector pGEX6P-3), N-terminal, cleaved

UBE2A [2] = target: UBE2A (UniProt P49459 1-152); assay: as above; settings: both partners purified

- Kd (UBE2A [1]): 1.19 µM
B1: UBR4_(xtal) (UBR4 residues 4,730–5,183) (domain or fragment)
chain: AIQHPGTQVLIGTDSIPNLHKLEQVSSDEGIGTLAENLLEALREHPDVNKKIDAARRETRAEKKRMAMAMRQKALGTLGMTTNEKGQVVTKTALLKQMEELIEEPGLTCCICREGYKFQPTKVLGIYTFTKRVALEEMENKPRKQQGYSTVSHFNIVHYDCHLAAVRLARGREEWESAALQNANTKCNGLLPVWGPHVPESAFATCLARHNTYLQECTGQREPTYQLNIHDIKLLFLRFAMEQSFSADTGGGGRESNIHLIPYIIHTVLYVLNTTRATSREEKNLQGFLEQPKEKWVESAFEVDGPYYFTVLALHILPPEQWRATRVEILRRLLVTSQARAVAPGGATRLTDKAVKDYSAYRSSLLFWALVDLIYNMFKKVPTSNTEGGWSCSLAEYIRHNDMPIYEAADKALKTFQEEFMPVETFSEFLDVAGLLSEITDPESFLKDLLNSVP
notes: UBR4, human, residues 4,730–5,183 (runs to the native C-terminus); holds the unresolved N-terminal region, the hemiRING zinc finger and the UZI subdomain; The GST tag is said to be cleaved for crystallization and autoubiquitination assays; Cloning strategy is in Supplementary Data 1; also called UBR4_(4730–5183); hemiRING-UZI module construct; source: E. coli BL21(DE3), purified (glutathione …)

- binding result (UBE2A [1]): binds
B2: UBR4_(xtal) Ser4930Arg (domain or fragment)
chain: B1 chain with S201R
notes: also called UBR4 Ser4930Arg; S4930R; source: E. coli BL21(DE3), purified (glutathione sepharose 4B, SEC)

- Kd (UBE2A [2]): 89.8 µM
B3: UBR4_(4828–5183) (domain or fragment)
chain: EELIEEPGLTCCICREGYKFQPTKVLGIYTFTKRVALEEMENKPRKQQGYSTVSHFNIVHYDCHLAAVRLARGREEWESAALQNANTKCNGLLPVWGPHVPESAFATCLARHNTYLQECTGQREPTYQLNIHDIKLLFLRFAMEQSFSADTGGGGRESNIHLIPYIIHTVLYVLNTTRATSREEKNLQGFLEQPKEKWVESAFEVDGPYYFTVLALHILPPEQWRATRVEILRRLLVTSQARAVAPGGATRLTDKAVKDYSAYRSSLLFWALVDLIYNMFKKVPTSNTEGGWSCSLAEYIRHNDMPIYEAADKALKTFQEEFMPVETFSEFLDVAGLLSEITDPESFLKDLLNSVP
modifications: one Zn2+ bound (Cys4838, Cys4841, His4887, Cys4890). The C-terminal limit 5183 is taken from the Fig. 7 title and legend and the structure section; '4828-5130' in the ITC text is treated as a …
